Tests used:
human IL-17A [1] = target: T1, human IL-17A (human, UniProt Q16552 24-155); assay: ELISA, binding to human IL-17A
T1 construct: The immunogen was IL-17A protein, R&D Systems Cat #3012; also called Interleukin-17A; Hu IL-17

human IL-17A [2] = target: T1, human IL-17A; assay: cell-based or functional assay
cyno primate IL-17A = target: T2, cyno primate IL-17A (cyno primate, UniProt A0A2K5TTB0 24-155); assay: ELISA, binding to cyno IL-17A
T2 construct: Antigen of the primate crossreactivity ELISA; construct not described; also called Cy IL-17

human IL-17A [3] = target: T1, human IL-17A; assay: IL-17A/IL-17R blocking ELISA
murine IL-17A = target: T3, murine IL-17A (murine, UniProt Q62386 26-158, limits assumed); assay: murine IL-17A crossreactivity ELISA
T3 construct: Antigen of the murine IL-17A crossreactivity ELISA; construct not described; also called mouse IL-17A
T3 sequence (looked up): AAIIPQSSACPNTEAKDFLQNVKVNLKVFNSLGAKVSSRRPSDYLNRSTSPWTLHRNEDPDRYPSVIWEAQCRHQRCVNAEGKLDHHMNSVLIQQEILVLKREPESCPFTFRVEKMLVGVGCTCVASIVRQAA

human IL-17A [4] = target: T1, human IL-17A; assay: SPR, Biacore 8k; antibody amine-coupled to the chip, IL-17A as analyte
Experimental: (§1) The recombinant IgGs secreted to the medium and were purified using protein A affinity chromatography. […] Antibodies were immobilized on the sensor chip through amine coupling method. […] The data of dissociation (kd) and association (ka) rate constants were obtained using Biacore 8k evaluation software. The equilibrium dissociation constants (KD) were calculated from the ratio of kd over ka.

human IL-17A [5] = target: T1, human IL-17A; assay: cell-based or functional assay; remark: listed apart in the source
human IL-17A [6] = target: T1, human IL-17A; assay: SPR, Biacore T200; antibody amine-coupled to the chip, IL-17A as analyte
Experimental: The data of dissociation (kd) and association (kₐ) rate constants were obtained using Biacore T200 evaluation software. The equilibrium dissociation constants (KD) were calculated from the ratio of kd over kₐ.

human IL-17A [7] = target: T1, human IL-17A; assay: SPR, Biacore 8k; antibody amine-coupled to the chip, IL-17A as analyte (second, unlabelled row); second, unlabelled row under Chimeric Ab
Experimental: as §1

human IL-17A [8] = target: T1, human IL-17A; assay: SPR, Biacore 8k; antibody amine-coupled to the chip, IL-17A as analyte; first of two Chimeric Ab rows (ka 1.94E+06)
Experimental: as §1

human IL-17A [9] = target: T1, human IL-17A; assay: SPR, Biacore 8k; antibody amine-coupled to the chip, IL-17A as analyte (second, unlabelled row)
Experimental: as §1

T2 sequence (A0A2K5TTB0 entry or part of it): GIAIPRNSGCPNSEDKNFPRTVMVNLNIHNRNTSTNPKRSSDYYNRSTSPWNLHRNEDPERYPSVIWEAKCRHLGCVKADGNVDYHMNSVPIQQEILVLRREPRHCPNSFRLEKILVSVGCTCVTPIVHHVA
T1 sequence (Q16552 24-155 limits assumed): as the sequence (A0A2K5TTB0 entry or part of it) above, with A3T, S8P, S34N, V77I, K78N, R104P counted along it

| Binder | EC50 (human IL-17A [1]) | IC50 (nM), IL6 production by TNFα-primed NIH3T3 cells stimulated with human IL-17A (human IL-17A [2]) | EC50 (cyno primate IL-17A) | IC50 (human IL-17A [3]) | binding result (murine IL-17A) | Kd (human IL-17A [4]) | koff (human IL-17A [4]) | kon (human IL-17A [4]) | IC50 (nM), NIH3T3 in vitro functional assay described in Example 1 (IL-6 production) (human IL-17A [5]) | also measured |
| --- | --- | --- | --- | --- | --- | --- | --- | --- | --- | --- |
| 4H11C7 (antibody, mouse IgG1, V domains shown, amino acids 1-19 are stated as the leader; also called A1) VH: QVTLKESGPGILQPSQTLSLTCSFSGFSLNTFGMGVDWIRQPSGKGLEWLAHIWWDDDKYYNPALESRLTISKDASKNQVFLKIANVDTADTATYYCSRRELGPYFFDYWGQGTTLTVSS VL: GVLMTQTPLSLPVSLGDQASISCRSSQSIVHSNGNTYLEWYLQKPGQSPKLLIYKVSNRFSGVPDRFSGSGSGTDFTLKINRVEAEDLGVYYCFQGSHFPYTFGGGTKLEID | 190 pM | 0.953 nM | 16 pM | 2440 pM | no binding | – | – | – | – | – |
| 22E2G4 (antibody, mouse IgG1, V domains shown, amino acids 1-19 are stated as the leader; also called A3) VH: QVQLQQPGAELVMPGTSVRLSCKASGYTFTSYWMHWVKQRPGQGLEWIGEIDPSDTYTNYNPKFKGKATLTVDKSSSTAYMQFTSLTSEDSAVYYCARSGIYYDYYEDYWGQGTTLTVSS VL: DVVMTQTPLSLPVSLGDQASISCRSSQILLHSNGNTYLHWYLQKPGQSPKLLIYKVSNRFSGVPDRFSGSGSGTDFTLKISRVEAEDLGVYFCSQSVHVPTFGGGTKLEIK | 150 pM | 0.534 nM | 13 pM | 3040 pM | no binding | – | – | – | – | – |
| 26G11B11 (antibody, mouse IgG1, V domains shown, amino acids 1-19 are stated as the leader; also called A6) VH: QVQLQQPGAELVMPGASVKLSCKAAGYTFTSYWMHWVKQRPGQGLEWIGEIDPSDSYTNYNQKFKGKATLTVDKSSSTAYMQLSSLTSEDSAVYYCARSGIYYDYYEDYWGQGTTLTVSS VL: DVVMTQTPLSLPVSLGDQASISCRSSQSLVHSNGNTYLHWYLQKPGQSPKLLIYKVSNRFSGVPDRFSGSGSGTDFTLKISRVEAEDLGVYFCSQSIHVPTFGGGTKLEIK | 120 pM | 0.544 nM | 12 pM | 2190 pM | no binding | – | – | – | – | – |
| 24F11E4 (antibody, mouse IgG1, V domains shown, amino acids 1-19 are stated as the leader; also called A5) VH: QVQLQQPGAELVMPGASVRLSCKASGYTFTNYWIHWVKQRPGQGLEWIGEIDPSDTFTNYSPKFKGKATLTVDKSSSTAYMQLTGLTSEDSAVYFCARSGIYYDYYEDYWGQGTTLTVSS VL: DVVMTQTPLSLPVSLGDQVSISCRSSQILLHSNGNTYLHWYLQKPGQSPKLLIYKVSNRFSGVPDRFSGSGSGTDFTLKISRVEADDLGVYFCSQSVHVPTFGGGTKLEIK | 160 pM | 0.138 nM | 10 pM | 2150 pM | no binding | – | – | – | – | – |
| 8A5G4 (antibody, V domains shown, amino acids 1-19 are stated as the leader; also called A2) VH: QVELKESGPGLVAPSQSLSITCTVSGFSLTSYGVYWVRQPPGKGLEWLVVIWSDGTTTYNSALKSRLSISKDNSKSQVFLKMNSLQTDDTAMYYCARQGDNYSYAVDYWGQGTAVTVSS VL: DVVMIQIPLSLPVSLGDQASISCRSSQSLVHSNGNTYLHWYLQKPGQSPKLLIYKVFNRFSGVPDRFSGSGSGTDFTLKISRVEAEDLGVYFCSQSTHAPLTFGAGTKLELK | 100 pM | 0.47 nM | 8 pM | 1650 pM | no binding | – | – | – | – | – |
| 23A4D8 (antibody, mouse IgG2a, V domains shown, also called Murine 23A4D8; parental) VH: EVQLQQSGPELVKPGASVKISCKASGFTFTDYYMNWMKQSHGKSLEWIGDINPKNGGTIFNQNFRGKATLTVDKSSSTAYMELRSLTSEDSAVYYCARSILTGPFYFDYWGQGTTLTVSS VL: DIVLTQSPASLAVSLGQRAIISCKASQSVSFAGTGLMHWYQQKSGQQPKLLISRASNLEAGVPTRFSGSGSRTDFTLNIHPVEEDDAATYYCQQTMEYPTFGGGTKLEIK | 80 pM | 0.581 nM | 4 pM | 2070 pM | no binding | 4.89 pM | 1.22e-05 s⁻¹ | 2.5e+06 M⁻¹ s⁻¹ | 0.703 nM | – |
| chimeric IgG4 (murine-human chimeric antibody derived from murine antibody A4 and human IgG4) (antibody, V domains shown, also called Chimeric Ab) VH: EVQLQQSGPELVKPGASVKISCKASGFTFTDYYMNWMKQSHGKSLEWIGDINPKNGGTIFNQNFRGKATLTVDKSSSTAYMELRSLTSEDSAVYYCARSILTGPFYFDYWGQGTTLTVSS VL: DIVLTQSPASLAVSLGQRAIISCKASQSVSFAGTGLMHWYQQKSGQQPKLLISRASNLEAGVPTRFSGSGSRTDFTLNIHPVEEDDAATYYCQQTMEYPTFGGGTKLEIKR | – | – | – | – | – | 5.15 pM | – | 1.94e+06 M⁻¹ s⁻¹ | – | Kd (human IL-17A [6]): ≤ 4.93 pM; koff (human IL-17A [6]): ≤ 1e-05 s⁻¹; kon (human IL-17A [6]): 2.03e+06 M⁻¹ s⁻¹; kon (human IL-17A [7]): 2.28e+06 M⁻¹ s⁻¹; koff (human IL-17A [8]): ≤ 1e-05 s⁻¹; Kd (human IL-17A [9]): 4.39 pM; koff (human IL-17A [9]): 1e-05 s⁻¹ |
| REMD 155.1 (antibody, human IgG4 S228P, kappa, V domains shown, Humanized antibody derived from 23A4D8; also called IgG 2 (H1/L2); H1 + L2) VH: QVQLVQSGAEVKKPGASVKVSCKASGFTFTDYYMNWVRQAPGQGLEWMGDINPKNGGTIFNQNFRGRVTMTRDTSISTAYMELSRLRSDDTAVYYCARSILTGPFYFDYWGQGTLVTVSS VL: DIVMTQSPDSLAVSLGERATINCKASQSVSFAGTGLMHWYQQKPGQQPKLLIYRASNLEAGVPDRFSGSGSGTDFTLTISSLQAEDVAVYYCQQTMEYPTFGGGTKLEIKR | – | – | – | – | – | ≤ 3.61 pM | ≤ 1e-05 s⁻¹ | 2.77e+06 M⁻¹ s⁻¹ | 0.995 nM | – |
| REMD 155.2 (antibody, human IgG4 S228P, kappa, V domains shown, Humanized antibody derived from 23A4D8; also called IgG 4 (H1/L4); H1 + L4) VH: QVQLVQSGAEVKKPGASVKVSCKASGFTFTDYYMNWVRQAPGQGLEWMGDINPKNGGTIFNQNFRGRVTMTRDTSISTAYMELSRLRSDDTAVYYCARSILTGPFYFDYWGQGTLVTVSS VL: DIVLTQSPDSLAVSLGERATINCKASQSVSFAGTGLMHWYQQKPGQQPKLLIYRASNLEAGVPDRFSGSGSGTDFTLTISSVQAEDVAVYYCQQTMEYPTFGGGTKLEIKR | – | – | – | – | – | ≤ 3.46 pM | ≤ 1e-05 s⁻¹ | 2.89e+06 M⁻¹ s⁻¹ | 0.975 nM | – |
| REMD 155 (antibody, human IgG4 S228P, kappa, V domains shown, Humanized antibody derived from 23A4D8; also called IgG 1 (H1/L1); H1 + L1) VH: QVQLVQSGAEVKKPGASVKVSCKASGFTFTDYYMNWVRQAPGQGLEWMGDINPKNGGTIFNQNFRGRVTMTRDTSISTAYMELSRLRSDDTAVYYCARSILTGPFYFDYWGQGTLVTVSS VL: DIVMTQSPDSLAVSLGERATINCKASQSVSFAGTGLMHWYQQKPGQPPKLLIYRASNLEAGVPDRFSGSGSGTDFTLTISSLQAEDVAVYYCQQTMEYPTFGGGTKLEIKR | – | – | – | – | – | 5.52 pM | 1.35e-05 s⁻¹ | 2.45e+06 M⁻¹ s⁻¹ | 0.88 nM | – |
